From US20240226230A1 (MAYO FOUNDATION FOR MEDICAL EDUCATION AND RESEARCH, published 2024)

T1: endogenous Nup62 (human, UniProt P37198 2-522)
T1 construct: Detected with anti-Nup62
T1 sequence (looked up): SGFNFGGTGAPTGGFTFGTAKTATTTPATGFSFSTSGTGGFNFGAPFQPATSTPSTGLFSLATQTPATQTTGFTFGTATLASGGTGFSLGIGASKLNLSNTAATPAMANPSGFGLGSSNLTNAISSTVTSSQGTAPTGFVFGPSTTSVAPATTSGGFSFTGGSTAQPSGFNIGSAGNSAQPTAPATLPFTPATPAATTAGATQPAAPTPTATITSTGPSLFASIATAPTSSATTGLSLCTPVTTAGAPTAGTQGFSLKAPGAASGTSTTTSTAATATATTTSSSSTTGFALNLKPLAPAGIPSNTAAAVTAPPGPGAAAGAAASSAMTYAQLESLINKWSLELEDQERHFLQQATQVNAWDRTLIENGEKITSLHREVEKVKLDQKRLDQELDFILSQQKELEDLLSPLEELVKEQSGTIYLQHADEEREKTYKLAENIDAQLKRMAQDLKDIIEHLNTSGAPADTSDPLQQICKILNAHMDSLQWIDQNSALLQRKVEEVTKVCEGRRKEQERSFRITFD

T2: endogenous Nup50 (human, UniProt Q9UKX7 1-468, limits assumed)
T2 construct: Detected with anti-Nup50
T2 sequence (looked up): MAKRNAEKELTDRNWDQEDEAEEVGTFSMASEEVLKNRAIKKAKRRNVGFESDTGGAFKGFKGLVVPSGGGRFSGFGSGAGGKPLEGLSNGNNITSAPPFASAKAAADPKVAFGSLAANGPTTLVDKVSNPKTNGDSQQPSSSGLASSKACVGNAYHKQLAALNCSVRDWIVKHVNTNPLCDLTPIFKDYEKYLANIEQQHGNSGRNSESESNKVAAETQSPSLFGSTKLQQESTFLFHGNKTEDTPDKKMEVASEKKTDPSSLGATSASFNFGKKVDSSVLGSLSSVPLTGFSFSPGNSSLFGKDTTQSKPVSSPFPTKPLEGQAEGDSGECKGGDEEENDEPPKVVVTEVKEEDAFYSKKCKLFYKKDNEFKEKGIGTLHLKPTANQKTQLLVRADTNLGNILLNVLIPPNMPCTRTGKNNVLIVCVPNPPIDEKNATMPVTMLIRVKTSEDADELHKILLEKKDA

B1: GFP-KPNB1 H1-9 (receptor)
chain: GGGSGGGSGGGSMELITILEKTVSPDRLELEAAQKFLERAAVENLPTFLVELSRVLANPGNSQVARVAAGLQIKNSLTSKDPDIKAQYQQRWLAIDANARREVKNYVLQTLGTETYRPSSASQCVAGIACAEIPVNQWPELIPQLVANVTNPNSTEHMKESTLEAIGYICQDIDPEQLQDKSNEILTAIIQGMRKEEPSNNVKLAATNALLNSLEFTKANFDKESERHFIMQVVCEATQCPDTRVRVAALQNLVKIMSLYYQYMETYMGPALFAITIEAMKSDIDEVALQGIEFWSNVCDEEMDLAIEASEAAEQGRPPEHTSKFYAKGALQYLVPILTQTLTKQDENDDDDDWNPCKAAGVCLMLLATCCEDDIVPHVLPFIKEHIKNPDWRYRDAAVMAFGCILEGP
notes: also called N-terminal half of KPNB1 (HEAT repeats 1-9); not shown: GFP/EGFP tag (pEGFP-C1, Clontech)
B2: GFP-KPNB1 H1-4 (receptor)
chain: GGGSGGGSGGGSMELITILEKTVSPDRLELEAAQKFLERAAVENLPTFLVELSRVLANPGNSQVARVAAGLQIKNSLTSKDPDIKAQYQQRWLAIDANARREVKNYVLQTLGTETYRPSSASQCVAGIACAEIPVNQWPELIPQLVANVTNPNSTEHMKESTLEAIGYICQDIDPEQLQ
notes: not shown: GFP/EGFP tag (pEGFP-C1, Clontech)
B3: GFP-KPNB1 H1-5 (receptor)
chain: GGGSGGGSGGGSMELITILEKTVSPDRLELEAAQKFLERAAVENLPTFLVELSRVLANPGNSQVARVAAGLQIKNSLTSKDPDIKAQYQQRWLAIDANARREVKNYVLQTLGTETYRPSSASQCVAGIACAEIPVNQWPELIPQLVANVTNPNSTEHMKESTLEAIGYICQDIDPEQLQDKSNEILTAIIQGMRKEEPSNNVKLAATNALLNSLEFTKANF
notes: as for B2
B4: GFP-KPNB1 H1-3 (receptor)
chain: GGGSGGGSGGGSMELITILEKTVSPDRLELEAAQKFLERAAVENLPTFLVELSRVLANPGNSQVARVAAGLQIKNSLTSKDPDIKAQYQQRWLAIDANARREVKNYVLQTLGTETYRPSSASQCVAGIACAEIPVNQWP
notes: as for B2
B5: GFP-KPNB1 H1-8 (receptor)
chain: GGGSGGGSGGGSMELITILEKTVSPDRLELEAAQKFLERAAVENLPTFLVELSRVLANPGNSQVARVAAGLQIKNSLTSKDPDIKAQYQQRWLAIDANARREVKNYVLQTLGTETYRPSSASQCVAGIACAEIPVNQWPELIPQLVANVTNPNSTEHMKESTLEAIGYICQDIDPEQLQDKSNEILTAIIQGMRKEEPSNNVKLAATNALLNSLEFTKANFDKESERHFIMQVVCEATQCPDTRVRVAALQNLVKIMSLYYQYMETYMGPALFAITIEAMKSDIDEVALQGIEFWSNVCDEEMDLAIEASEAAEQGRPPEHTSKFYAKGALQYLVPILTQTLTKQDENDDDDDWNPCKAAGVCLMLLATCCED
notes: also called GFP-KPNB1 H1-8^WT; not shown: GFP/EGFP tag (pEGFP-C1, Clontech)
B6: GFP-KPNB1 H1-7 (receptor)
chain: GGGSGGGSGGGSMELITILEKTVSPDRLELEAAQKFLERAAVENLPTFLVELSRVLANPGNSQVARVAAGLQIKNSLTSKDPDIKAQYQQRWLAIDANARREVKNYVLQTLGTETYRPSSASQCVAGIACAEIPVNQWPELIPQLVANVTNPNSTEHMKESTLEAIGYICQDIDPEQLQDKSNEILTAIIQGMRKEEPSNNVKLAATNALLNSLEFTKANFDKESERHFIMQVVCEATQCPDTRVRVAALQNLVKIMSLYYQYMETYMGPALFAITIEAMKSDIDEVALQGIEFWSNVCDEEMDLAIEASEAAEQGRPP
notes: as for B2

Legend:
Test in all cases: co-IP of GFP-tagged KPNB1 truncations, western blot
endogenous importin-α1 = endogenous importin-α1 (human, UniProt P52292 2-529)
Source text: (§1) FIG. 21A) Schematic domain structure of KPNB1. KPNB1 is comprised of 19 HEAT repeats (H1-19). RanGTP and importin-α interact with H1-8 and H8-19, respectively. FG-Nups bind to two regions of KPNB1, H5-7 and H14-16. FIG. 21B) Lysates from HEK293T cells expressing GFP, GFP-KPNB1 full-length (FL), N-terminal fragments of KPNB1 (H1-9 . . . H1) or the C-terminal fragment of KPNB1 (H10-19) were subjected to immunoprecipitation with GFP-Trap magnetic beads. Whole cell lysates (input) and immunoprecipitates (IP) were subjected to western blot analysis using indicated antibodies. KPNB1 H1-8, the smallest fully active KPNB1 fragment in reducing TDP-43 aggregation, strongly interacts with FG-Nups and Ran, and weakly with importin-al in comparison with full-length KPNB1. FIG. 21C) (Top) Schematic domain structure of KPNB1 H1-8^mNIS harboring four missense mutations (1178A, F217A, Y255A, I263R) in the nucleoporin-interacting site (NIS). (Bottom) Lysates from HEK293T cells expressing GFP, GFP-KPNB1 H1-8^WT or H1-8^mNIS were subjected to immunoprecipitation with GFP-Trap magnetic beads. Whole cell lysates (input) and immunoprecipitates (IP) were subjected to western blot analysis using indicated antibodies. […] Hoechst staining was used to outline nuclei. Scale bar: 5 μm. […] Statistical analysis was performed using one-way ANOVA and Bonferroni's post hoc test (**p<0.01, ***p<0.001, n=4). FIG. 21F) IF of HEK293T cells co-expressing GFP-(GR)₁₀₀ with an empty plasmid (ctrl), FLAG-tagged KPNB1 H1-8^WT or H1-8^mNIS and stained for endogenous TDP-43. Unlike KPNB1 H1-8^mNIS, KPNB1 H1-8^WT prevents the sequestration of endogenous TDP-43 in cytoplasmic GR aggregates. Arrowheads point to cytoplasmic GR aggregates. Hoechst staining was used to outline nuclei. Scale bar: 5 μm.

endogenous Nup62 = molecular target: T1, endogenous Nup62
Source text: as §1

endogenous Nup50 = molecular target: T2, endogenous Nup50
Source text: as §1

endogenous Ran = endogenous Ran (human, UniProt P62826 2-216)
Source text: as §1

Binder	binding result (endogenous importin-α1)	binding result (endogenous Nup62)	binding result (endogenous Nup50)	binding result (endogenous Ran)
B1	binds	binds	binds	binds
B2	no binding	no binding	no binding	no binding
B3	no binding	no binding	no binding	no binding
B4	no binding	no binding	no binding	no binding
B5		binds	binds	binds
B6	no binding	no binding	no binding	no binding
